Results on 4 molecules are retold here after patent US20140087995A1 (published 2014).

The term IC50 denotes the concentration at which inhibition is half-maximal.

The target in assay [1] is T1, rat calcitonin receptor (rat, UniProt P32214 25-516).
T1 construct: whole, on cells; Used as membranes prepared from the transfected cells; also called rCTR; rat calcitonin (a) receptor
T1 sequence (looked up): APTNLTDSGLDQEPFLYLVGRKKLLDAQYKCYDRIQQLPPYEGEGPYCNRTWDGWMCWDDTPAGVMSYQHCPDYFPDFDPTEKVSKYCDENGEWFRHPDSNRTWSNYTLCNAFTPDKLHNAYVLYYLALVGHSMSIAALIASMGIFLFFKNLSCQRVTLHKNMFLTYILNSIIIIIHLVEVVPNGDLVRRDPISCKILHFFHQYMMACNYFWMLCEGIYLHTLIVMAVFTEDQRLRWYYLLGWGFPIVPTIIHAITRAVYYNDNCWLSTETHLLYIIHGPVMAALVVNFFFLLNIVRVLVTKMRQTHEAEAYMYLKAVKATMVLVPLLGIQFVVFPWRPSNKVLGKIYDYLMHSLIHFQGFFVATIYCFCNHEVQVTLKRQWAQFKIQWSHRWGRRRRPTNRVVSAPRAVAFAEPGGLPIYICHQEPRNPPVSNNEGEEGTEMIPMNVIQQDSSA
In words: ratio IC50 rat calcitonin receptor / IC50 rat amylin receptor (Assays VIII and VI).

In assay [2] the target is T1, rat calcitonin receptor. In words: SPA competition with 125I-calcitonin, membranes of BHK cells with rat calcitonin receptor (Assay VIII).
Assay [3] concerns the target T2, rat amylin receptor (rat calcitonin receptor + rat RAMP 3) (rat, UniProt P32214 25-516; Q9JJ73 23-147).
T2 construct: whole, on cells; Used as membranes prepared from the transfected cells; also called rAmylin-R; rat amylin 3(a) receptor
T2 sequence (looked up) 1: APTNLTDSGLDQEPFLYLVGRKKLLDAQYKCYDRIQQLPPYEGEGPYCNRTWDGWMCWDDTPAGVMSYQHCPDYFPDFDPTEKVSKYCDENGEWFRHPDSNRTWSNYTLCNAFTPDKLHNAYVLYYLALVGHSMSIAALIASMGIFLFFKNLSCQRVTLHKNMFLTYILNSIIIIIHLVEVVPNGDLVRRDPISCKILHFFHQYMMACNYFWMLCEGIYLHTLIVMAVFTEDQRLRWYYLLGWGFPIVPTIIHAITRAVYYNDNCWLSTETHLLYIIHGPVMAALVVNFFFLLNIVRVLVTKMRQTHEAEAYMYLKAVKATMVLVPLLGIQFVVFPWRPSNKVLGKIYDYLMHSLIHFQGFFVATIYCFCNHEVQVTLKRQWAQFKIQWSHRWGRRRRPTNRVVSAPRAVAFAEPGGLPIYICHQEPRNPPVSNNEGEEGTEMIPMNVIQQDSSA
T2 sequence (looked up) 2: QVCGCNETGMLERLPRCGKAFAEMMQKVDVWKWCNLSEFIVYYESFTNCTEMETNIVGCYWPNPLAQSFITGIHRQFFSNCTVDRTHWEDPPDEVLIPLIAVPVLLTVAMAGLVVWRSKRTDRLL
Briefly: SPA competition with 125I-rat amylin, membranes of BHK cells with rat calcitonin receptor + rat RAMP3 (Assay VI).

Assay [4] addresses T3, human calcitonin receptor (human, UniProt P30988 25-474).
T3 construct: whole, on cells; Used as membranes prepared from the transfected cells (Assay VII); also called hCTR; hCT
T3 sequence (looked up): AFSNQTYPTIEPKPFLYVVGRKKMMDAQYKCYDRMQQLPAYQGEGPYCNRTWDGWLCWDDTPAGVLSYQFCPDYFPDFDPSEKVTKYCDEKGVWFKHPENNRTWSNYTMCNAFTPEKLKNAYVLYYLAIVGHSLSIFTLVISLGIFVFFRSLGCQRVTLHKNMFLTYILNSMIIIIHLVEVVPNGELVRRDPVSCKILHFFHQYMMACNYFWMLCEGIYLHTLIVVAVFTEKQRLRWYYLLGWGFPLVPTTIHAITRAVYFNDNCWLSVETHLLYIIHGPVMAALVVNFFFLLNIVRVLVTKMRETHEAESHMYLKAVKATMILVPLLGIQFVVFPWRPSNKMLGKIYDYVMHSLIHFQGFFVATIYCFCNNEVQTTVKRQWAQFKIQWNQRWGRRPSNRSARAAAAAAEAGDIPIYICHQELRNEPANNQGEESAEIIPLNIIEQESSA
Briefly: ratio IC50 human calcitonin receptor / IC50 human amylin receptor (Assays VII and V). A digest of the protocol: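 Membranes (35 ng/μL final) + SPA beads, 50 mM Hepes pH 7.4 buffer with 1 mM CaCl2, 5 mM MgCl₂, 0.1% OA, 0.02% Tween20; 120 min, 25° C, shaking; centrifuged, counted; IC₅₀ by one-site binding competition.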

Numbered stars: 1 amine (or outer) side, 2 acyl side, 3 side chain; on linkers, the order of the positions; unused ones are H or OH. Bridge positions count the residues as written; N and C are the ends. Side chains are listed from the residue outwards. Ends that are not written are not given here. * marks the point of attachment. C20 diacid = O=C(O)CCCCCCCCCCCCCCCCCCC(=O)*; γGlu = O=C(O)[C@H](CCC(=O)[*:2])N[*:1]

B1: N^ε1-[(4S)-4-carboxy-4-[[(4S)-4-carboxy-4-(19-carboxynonadecanoylamino)butanoyl]amino]butanoyl]-[Asp14,Arg17,Pro21,Pro27,Asp35]-h-amylin (peptide)
peptide: K([γGlu-γGlu-C20 diacid])CNTATCATQRLADFLRHSSPNFGAIPSSTNVGSDTY-NH2
modifications: disulfide 2-7; N-terminus assumed
SMILES: CC[C@H](C)[C@H](NC(=O)[C@H](C)NC(=O)CNC(=O)[C@H](Cc1ccccc1)NC(=O)[C@H](CC(N)=O)NC(=O)[C@@H]1CCCN1C(=O)[C@H](CO)NC(=O)[C@H](CO)NC(=O)[C@H](Cc1c[nH]cn1)NC(=O)[C@H](CCCNC(=N)N)NC(=O)[C@H](CC(C)C)NC(=O)[C@H](Cc1ccccc1)NC(=O)[C@H](CC(=O)O)NC(=O)[C@H](C)NC(=O)[C@H](CC(C)C)NC(=O)[C@H](CCCNC(=N)N)NC(=O)[C@H](CCC(N)=O)NC(=O)[C@@H](NC(=O)[C@H](C)NC(=O)[C@@H]1CSSC[C@H](NC(=O)[C@@H](N)CCCCNC(=O)CC[C@H](NC(=O)CC[C@H](NC(=O)CCCCCCCCCCCCCCCCCCC(=O)O)C(=O)O)C(=O)O)C(=O)N[C@@H](CC(N)=O)C(=O)N[C@@H]([C@@H](C)O)C(=O)N[C@@H](C)C(=O)N[C@@H]([C@@H](C)O)C(=O)N1)[C@@H](C)O)C(=O)N1CCC[C@H]1C(=O)N[C@@H](CO)C(=O)N[C@@H](CO)C(=O)N[C@H](C(=O)N[C@@H](CC(N)=O)C(=O)N[C@H](C(=O)NCC(=O)N[C@@H](CO)C(=O)N[C@@H](CC(=O)O)C(=O)N[C@H](C(=O)N[C@@H](Cc1ccc(O)cc1)C(N)=O)[C@@H](C)O)C(C)C)[C@@H](C)O
notes: Derivative of human amylin; also called compound 2
With B1, the “Ratio rCT/rAmylin binding” value with rat calcitonin receptor [1] was found to be 366. The IC50 with rat calcitonin receptor [2] was determined as 108 nM; in assay [3], 0.295 nM. In assay [4], the “Ratio hCT/hAmylin binding” value was 47.5.

B2: N^ε1-[(4S)-4-carboxy-4-[[(4S)-4-carboxy-4-(19-carboxynonadecanoylamino)butanoyl]amino]butanoyl]-[Asp14,Arg17,Pro22,Pro26,Asp35]-h-amylin (peptide)
peptide: K([γGlu-γGlu-C20 diacid])CNTATCATQRLADFLRHSSNPFGAPLSSTNVGSDTY-NH2
modifications: disulfide 2-7; N-terminus assumed
SMILES: CC(C)C[C@H](NC(=O)[C@H](CCCNC(=N)N)NC(=O)[C@H](CCC(N)=O)NC(=O)[C@@H](NC(=O)[C@H](C)NC(=O)[C@@H]1CSSC[C@H](NC(=O)[C@@H](N)CCCCNC(=O)CC[C@H](NC(=O)CC[C@H](NC(=O)CCCCCCCCCCCCCCCCCCC(=O)O)C(=O)O)C(=O)O)C(=O)N[C@@H](CC(N)=O)C(=O)N[C@@H]([C@@H](C)O)C(=O)N[C@@H](C)C(=O)N[C@@H]([C@@H](C)O)C(=O)N1)[C@@H](C)O)C(=O)N[C@@H](C)C(=O)N[C@@H](CC(=O)O)C(=O)N[C@@H](Cc1ccccc1)C(=O)N[C@@H](CC(C)C)C(=O)N[C@@H](CCCNC(=N)N)C(=O)N[C@@H](Cc1c[nH]cn1)C(=O)N[C@@H](CO)C(=O)N[C@@H](CO)C(=O)N[C@@H](CC(N)=O)C(=O)N1CCC[C@H]1C(=O)N[C@@H](Cc1ccccc1)C(=O)NCC(=O)N[C@@H](C)C(=O)N1CCC[C@H]1C(=O)N[C@@H](CC(C)C)C(=O)N[C@@H](CO)C(=O)N[C@@H](CO)C(=O)N[C@H](C(=O)N[C@@H](CC(N)=O)C(=O)N[C@H](C(=O)NCC(=O)N[C@@H](CO)C(=O)N[C@@H](CC(=O)O)C(=O)N[C@H](C(=O)N[C@@H](Cc1ccc(O)cc1)C(N)=O)[C@@H](C)O)C(C)C)[C@@H](C)O
notes: Derivative of human amylin; also called compound 3
On to B2, for which the “Ratio rCT/rAmylin binding” value in the assay with rat calcitonin receptor [1] came out at 16.7. Moreover, the figures for the half-inhibitory concentration (IC50) (in the assay with rat calcitonin receptor [2]; in assay [3]) were 16.7 nM and 1 nM, respectively. In addition, the “Ratio hCT/hAmylin binding” value in assay [4] worked out at 17.3.

B3: N^ε1-[(4S)--4-carboxy-4-(19-carboxynonadecanoylamino)butanoyl]-[Glu14,Arg17,Pro21,Pro27,Pro37]-h-amylin (peptide)
peptide: K([γGlu-C20 diacid])CNTATCATQRLAEFLRHSSPNFGAIPSSTNVGSNTP-NH2
modifications: disulfide 2-7; N-terminus assumed
SMILES: CC[C@H](C)[C@H](NC(=O)[C@H](C)NC(=O)CNC(=O)[C@H](Cc1ccccc1)NC(=O)[C@H](CC(N)=O)NC(=O)[C@@H]1CCCN1C(=O)[C@H](CO)NC(=O)[C@H](CO)NC(=O)[C@H](Cc1c[nH]cn1)NC(=O)[C@H](CCCNC(=N)N)NC(=O)[C@H](CC(C)C)NC(=O)[C@H](Cc1ccccc1)NC(=O)[C@H](CCC(=O)O)NC(=O)[C@H](C)NC(=O)[C@H](CC(C)C)NC(=O)[C@H](CCCNC(=N)N)NC(=O)[C@H](CCC(N)=O)NC(=O)[C@@H](NC(=O)[C@H](C)NC(=O)[C@@H]1CSSC[C@H](NC(=O)[C@@H](N)CCCCNC(=O)CC[C@H](NC(=O)CCCCCCCCCCCCCCCCCCC(=O)O)C(=O)O)C(=O)N[C@@H](CC(N)=O)C(=O)N[C@@H]([C@@H](C)O)C(=O)N[C@@H](C)C(=O)N[C@@H]([C@@H](C)O)C(=O)N1)[C@@H](C)O)C(=O)N1CCC[C@H]1C(=O)N[C@@H](CO)C(=O)N[C@@H](CO)C(=O)N[C@H](C(=O)N[C@@H](CC(N)=O)C(=O)N[C@H](C(=O)NCC(=O)N[C@@H](CO)C(=O)N[C@@H](CC(N)=O)C(=O)N[C@H](C(=O)N1CCC[C@H]1C(N)=O)[C@@H](C)O)C(C)C)[C@@H](C)O
notes: Derivative of human amylin; also called compound 12
As for B3, the “Ratio rCT/rAmylin binding” value with rat calcitonin receptor [1] is 5. Also, the IC50 in the assay with rat calcitonin receptor [2] was found to be 2.71 nM; in assay [3], 0.544 nM. In assay [4], the “Ratio hCT/hAmylin binding” value stood at 2.5.

B4: N{Alpha-1}-[(4S)-4-carboxy-4-(19-carboxynonadecanoylamino)butanoyl]-[Glu14,Arg17,Pro21,Pro27,Lys34]-h-amylin (peptide)
peptide: {C20 diacid-γGlu}-KCNTATCATQRLAEFLRHSSPNFGAIPSSTNVGKNTY-NH2
modifications: disulfide 2-7
SMILES: CC[C@H](C)[C@H](NC(=O)[C@H](C)NC(=O)CNC(=O)[C@H](Cc1ccccc1)NC(=O)[C@H](CC(N)=O)NC(=O)[C@@H]1CCCN1C(=O)[C@H](CO)NC(=O)[C@H](CO)NC(=O)[C@H](Cc1c[nH]cn1)NC(=O)[C@H](CCCNC(=N)N)NC(=O)[C@H](CC(C)C)NC(=O)[C@H](Cc1ccccc1)NC(=O)[C@H](CCC(=O)O)NC(=O)[C@H](C)NC(=O)[C@H](CC(C)C)NC(=O)[C@H](CCCNC(=N)N)NC(=O)[C@H](CCC(N)=O)NC(=O)[C@@H](NC(=O)[C@H](C)NC(=O)[C@@H]1CSSC[C@H](NC(=O)[C@H](CCCCN)NC(=O)CC[C@H](NC(=O)CCCCCCCCCCCCCCCCCCC(=O)O)C(=O)O)C(=O)N[C@@H](CC(N)=O)C(=O)N[C@@H]([C@@H](C)O)C(=O)N[C@@H](C)C(=O)N[C@@H]([C@@H](C)O)C(=O)N1)[C@@H](C)O)C(=O)N1CCC[C@H]1C(=O)N[C@@H](CO)C(=O)N[C@@H](CO)C(=O)N[C@H](C(=O)N[C@@H](CC(N)=O)C(=O)N[C@H](C(=O)NCC(=O)N[C@@H](CCCCN)C(=O)N[C@@H](CC(N)=O)C(=O)N[C@H](C(=O)N[C@@H](Cc1ccc(O)cc1)C(N)=O)[C@@H](C)O)C(C)C)[C@@H](C)O
notes: Derivative of human amylin; also called compound 36
As for B4, the “Ratio rCT/rAmylin binding” value with rat calcitonin receptor [1] was determined as 32.4. Besides, the values for the 50% inhibitory concentration (IC50) (in the assay with rat calcitonin receptor [2]; in assay [3]) were 60.1 nM and 1.86 nM, respectively. Further, in assay [4], the “Ratio hCT/hAmylin binding” value came to 15.7.
